The results in this text go back to US20250122303A1, “TREATMENT AND PREVENTION OF CANCER USING HER3 ANTIGEN-BINDING MOLECULES” (Hummingbird Bioscience Pte. Ltd., priority 2021, published 2025).

“Also recorded” adds a separate entry of the source.

Assay [1] deals with FaDu cell-line derived mouse model of head and neck squamous cell carcinoma. The experiment in a line: FaDu cell-line derived xenograft model. The class given is in vivo. On the procedure: (§1) Tumor volumes were measured 3 times a week using a digital caliper and calculated using the formula [L ×W2/2]. Study End point was considered to have been reaches once the tumors of the control arm measured >1.5 cm in length.
The model was established by subcutaneous injection of 1×10^6 FaDu cells into the right flanks of female NPG mice (NOD scid gamma phenotype; n=6 mice per treatment group).
10D1 was administered IP, weekly at 500 μg per dose (for a total of 4 doses). Control treatment groups received an equal volume of PBS, or the same dose of an isotype control antibody.
The model was established by subcutaneous injection of 1×10^6 FaDu cells into the right flanks of female NCr nude mice (n=6 mice per treatment group).
10D1 was administered IP, biweekly at 500 μg per dose (for a total of 8 doses); a control treatment group received an equal volume of PBS.
(§2) Tumour cells were inserted with matrigel subcutaneously into the right flanks of female NCr nude mice.
Murine tumour efficacy studies were performed using cell-line derived xenograft (CDX) models in mice. Female NCr nude mice (5-8 weeks old, 21-29 g) were subcutaneously implanted with N87, A549, FaDu, OvCAR8 cells. Treatment was initiated when tumours reached approximately 100 to 200 mm^3. […] Tumours were measured twice per week using a calliper and tumour volume (mm^3) was calculated. […]

The next assay relates to HER3-mediated signalling. As to the kind of experiment: Phospho-western blot of HER3-mediated signalling in cancer cell lines. The class given is cell-based, human. To be noted: N87 and FaDu cells, 50 μg/ml 4 hrs, NRG 100 ng/ml. The method, then:
Briefly, N87 and FaDu cells were seeded in wells of a 6 well plate with 10% serum at 37° C., 5% CO2. After 16 hrs, cells were starved by culture overnight in 1% FBS cell culture medium (to reduce signalling elicited by growth factors in the serum). On the following day cells were treated with 50 μg/ml anti-HER3 antibody 10D1 for 4 hrs, followed by 15 min stimulation with NRG (100 ng/ml). Proteins were then extracted, quantified using standard Bradford protein assay, fractionated by SDS-PAGE, and transferred to nitrocellulose membranes. The membranes were then blocked and immunoblotted with the following antibodies overnight at 4° C. anti-pHER3, anti-pAKT, pan anti-HER3, pan anti-AKT and anti-beta-actin. The blots were visualized via Bio-Rad Clarity Western ECL substrate, and bands were quantified using densiometric analysis; data were normalized to beta actin controls.
N87, FaDu or OvCAR8 cells were seeded in wells in a 6 well plate with 10% serum overnight at 37° C. with 5% CO2.
Before harvesting, cells were stimulated with 100 ng/ml of NRG1. Protein extracted from cell lines were quantified using standard Bradford protein assay. Protein samples (50 μg) were fractionated by SDS-PAGE and transferred to nitrocellulose membrane. […] The blots were quantified using densiometric analysis and data was normalised to beta actin. […]
(In general: In western blotting, separated proteins are transferred to a membrane and probed.)

For the next assay, the system named is N87 cells. The experiment in a line: CCK-8 proliferation assay, N87. It counts as cell-based, human. As to conditions: 5 days. On the procedure: Briefly, N87 and FaDu cells were treated with serially diluted concentrations of anti-HER3 antibody 10D1, starting from 100 μg/ml with a 9-point half log dilution. Cell proliferation was measuring using the CCK-8 proliferation assay (Dojindo, Japan) after a period of 5 days, in accordance with the manufacturer's instructions. Briefly 1× CCK-8 solution was added to each well followed by incubation for 2 h at 37° C. The OD was then measured at 450 nm.
For orientation: Tetrazolium assays rely on reduction of a dye to a coloured formazan, in cell work by metabolically active cells.

Assay [2] concerns OvCAR8 cell-line derived mouse model of ovarian carcinoma. As to the kind of experiment: OvCAR8 cell-line derived xenograft model. The class given is in vivo. As to conditions: OvCAR8, IP biweekly 500 μg, 9 doses. The method, then: as §1
The model was established by subcutaneous injection of 1×10^6 OvCAR8 cells into the right flanks of female NCr nude mice (n=6 mice per treatment group).
(§3) 10D1 was administered IP, biweekly at 500 μg per dose (for a total of 9 doses); a control treatment group received an equal volume of PBS.
as §2
Murine tumour efficacy studies were performed using cell-line derived xenograft (CDX) models in mice. Female NCr nude mice (5-8 weeks old, 21-29 g) were subcutaneously implanted with N87, A549, FaDu, OvCAR8 cells. Treatment was initiated when tumours reached approximately 100 to 200 mm^3. Vehicle (PBS) or therapeutic antibodies (25 mg/kg) were administered intraperitoneally (IP) at indicated time points (weekly FaDu and OvCAR8, twice weekly N87 and A549). Tumours were measured twice per week using a calliper and tumour volume (mm^3) was calculated. Each data point represents the mean tumour volume ±SEM (n=8 mice).

Assay [3] deals with SNU16 cell-line derived mouse gastric carcinoma model. The experiment in a line: SNU16 cell-line derived xenograft model. The class given is in vivo. As to conditions: SNU16, IP biweekly 500 μg, 9 doses. On the procedure:
as §1
The model was established by subcutaneous injection of 1×10^6 SNU16 cells into the right flank (n=6 mice per treatment group).
as §3

The target in a further assay is His-tagged human HER3 (Homo sapiens, UniProt P21860). As to the kind of experiment: BLI competition between anti-HER3 antibodies for binding to HER3. On the procedure:
Bio-Layer Interferometry (BLI) experiments were performed using the Octet QK384 system (ForteBio). anti-Penta-HIS (HIS1K) coated biosensor tips (ForteBio, USA) were used to capture His-tagged human HER3 (75 nM; 300 s). Binding by saturating antibody ([…]; 600 s) was detected, followed by a dissociation step (120s), followed by detection of binding with competing antibody (300 nM; 300 s), followed by a dissociation step (120s).
BLI experiments were performed as described in Example 3.5 with one alteration: 400 nM of competing antibodies were used. The variable regions of M-05-74 and M-08-11 antibodies were cloned in the PDZ vector having human IgG1 and IgKappa Fc backbone.

Assay [4] has as its system HCC-95 cell-line derived mouse model of squamous cell lung carcinoma. The experiment in a line: HCC-95 cell-line derived xenograft model. The class given is in vivo. As to conditions: HCC-95, IP biweekly 500 μg, 4 doses. On the procedure:
as §1
The model was established by subcutaneous injection of 1×10^6 HCC-95 cells into the right flanks of female NCr nude mice (n=6 mice per treatment group).
10D1 was administered IP, biweekly at 500 μg per dose (for a total of 4 doses); a control treatment group received an equal volume of PBS.

B1: 10D1: anti-HER3 antibody clone, VH SEQ ID NO:24, VL SEQ ID NO:74; [1] of Example 2.2 (antibody, V domains shown)
VH: DVQLQESGPDLVKPSQSLSLTCTVTGYSITSGYSWHWIRQFPGNKLEWMGSIHYSGGTNYNPSLKSRISITRDTSKNQFFLQLNSVTTEDTATYFCARMTTAPRYPFDYWGQGTTLTVSS
VL: DIVMTQSQKFMSTSVGDRVSVTCKASQIVGSNVAWYQQKPGQSPKPLIYSASYRYSGVPDRFTASGSGTDFTLTITNVQSEDLAEYFCQQYSSHPLTFGAGTKLELK
B1: the “inhibition of tumor growth” value in assay [1] (NCr nude mice, IP biweekly 500 μg, 8 doses) is reported as about 86%; in assay [1] (NPG mice, IP weekly 500 μg, 4 doses), about 85%; in assay [2], about 74%; in assay [3] it was about 68%; in assay [4] it was about 90%. The “HER3 phosphorylation and downstream signalling” value with HER3-mediated signalling is “inhibit HER3 phosphorylation and downstream signalling”. In addition, in the assay on N87 cells, the cell proliferation result is “dose-dependent inhibition of cell proliferation”. Further, the “competition with MM-121 and/or LJM-716 for binding to HER3” value with His-tagged human HER3 is “not to compete; also recorded: distinct and topologically distant epitope”.
